The values that follow come from paper doi:10.1101/2024.07.08.602551.

Experiment [1] has as its target human Twisted gastrulation Leu107Ala (human) (UniProt Q9GZX9). As to the kind of experiment: SPR. Background: SPR reads the build-up and loss of mass on a sensor chip optically.
Experiment [2] deals with human Twisted gastrulation (residues Cys26-Phe223) (human) (UniProt Q9GZX9). Description: SPR.
Chain of human Twisted gastrulation (residues Cys26-Phe223) (human) (Q9GZX9 26-223): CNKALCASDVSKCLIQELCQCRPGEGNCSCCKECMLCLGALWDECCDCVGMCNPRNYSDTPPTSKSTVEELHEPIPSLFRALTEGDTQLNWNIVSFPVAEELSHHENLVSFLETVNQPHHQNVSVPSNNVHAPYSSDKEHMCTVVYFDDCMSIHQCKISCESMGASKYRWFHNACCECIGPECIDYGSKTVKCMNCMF

Chain of human Twisted gastrulation Leu107Ala (human) (Q9GZX9 26-223 L107A): as the sequence (Q9GZX9 26-223) above, with L82A counted along it

Consider “human CHRDL2 (Arg24-Thr429) (natural protein)”, for which the dissociation constant (Kd) (as a rule, the equilibrium constant for the complex coming apart) is 11 nM in experiment [1] and 5 nM in experiment [2].
